The target of test [1] is T1, Human cytosolic isoleucyl-tRNA synthetase (human, UniProt P41252 1-1262).
T1 construct: human cytosolic isoleucyl-tRNA synthetase (IRS), gene cloned from the cDNA of HEK293 cells; also called IRS; source: recombinant from a modified pET28b, purified (Ni-NTA, gel filtration)
T1 sequence (looked up): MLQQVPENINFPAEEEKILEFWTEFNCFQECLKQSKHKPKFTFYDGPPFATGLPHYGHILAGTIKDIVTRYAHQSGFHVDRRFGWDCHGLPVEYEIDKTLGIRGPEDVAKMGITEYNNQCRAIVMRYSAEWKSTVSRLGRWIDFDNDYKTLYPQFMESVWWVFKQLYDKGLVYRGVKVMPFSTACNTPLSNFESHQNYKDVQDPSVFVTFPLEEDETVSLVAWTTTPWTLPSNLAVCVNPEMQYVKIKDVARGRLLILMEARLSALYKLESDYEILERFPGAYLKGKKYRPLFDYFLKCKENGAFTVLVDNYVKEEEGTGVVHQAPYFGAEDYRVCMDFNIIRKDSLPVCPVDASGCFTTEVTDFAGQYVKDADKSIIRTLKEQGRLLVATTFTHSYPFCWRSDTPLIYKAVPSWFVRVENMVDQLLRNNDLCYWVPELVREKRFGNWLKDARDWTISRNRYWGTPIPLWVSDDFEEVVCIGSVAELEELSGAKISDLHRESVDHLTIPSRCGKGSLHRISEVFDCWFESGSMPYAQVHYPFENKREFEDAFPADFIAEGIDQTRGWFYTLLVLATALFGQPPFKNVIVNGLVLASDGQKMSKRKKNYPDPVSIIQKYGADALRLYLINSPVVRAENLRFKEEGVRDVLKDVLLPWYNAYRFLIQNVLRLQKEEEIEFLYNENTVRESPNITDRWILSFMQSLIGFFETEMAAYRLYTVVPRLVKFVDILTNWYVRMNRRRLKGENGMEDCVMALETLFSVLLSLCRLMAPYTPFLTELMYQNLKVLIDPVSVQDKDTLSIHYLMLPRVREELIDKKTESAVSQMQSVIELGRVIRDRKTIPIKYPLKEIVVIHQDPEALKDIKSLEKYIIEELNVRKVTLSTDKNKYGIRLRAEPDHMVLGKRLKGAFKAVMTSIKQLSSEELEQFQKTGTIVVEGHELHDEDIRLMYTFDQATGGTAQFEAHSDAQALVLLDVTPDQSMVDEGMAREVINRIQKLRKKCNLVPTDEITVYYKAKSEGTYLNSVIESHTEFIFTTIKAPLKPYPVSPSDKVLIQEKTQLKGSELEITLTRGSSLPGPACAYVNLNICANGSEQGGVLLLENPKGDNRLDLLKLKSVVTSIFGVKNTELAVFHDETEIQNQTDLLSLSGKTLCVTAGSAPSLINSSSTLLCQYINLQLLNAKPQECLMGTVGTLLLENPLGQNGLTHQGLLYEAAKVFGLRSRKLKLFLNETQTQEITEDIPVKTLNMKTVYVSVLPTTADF
Put plainly: pull-down; in vitro assembly of the MSC as in a2 but lacking hcLRS; anti-Flag beads on MRS-Flag. To be noted: both partners purified.

The target of test [2] is T2, Human cytosolic glutamyl-prolyl-tRNA synthetase (human, UniProt P07814 1-1512).
T2 construct: human cytosolic EPRS, gene cloned from the cDNA of HEK293 cells; also called EPRS; source: recombinant from a modified pET28b, purified (Ni-NTA, gel filtration)
T2 sequence (P07814 whole entry): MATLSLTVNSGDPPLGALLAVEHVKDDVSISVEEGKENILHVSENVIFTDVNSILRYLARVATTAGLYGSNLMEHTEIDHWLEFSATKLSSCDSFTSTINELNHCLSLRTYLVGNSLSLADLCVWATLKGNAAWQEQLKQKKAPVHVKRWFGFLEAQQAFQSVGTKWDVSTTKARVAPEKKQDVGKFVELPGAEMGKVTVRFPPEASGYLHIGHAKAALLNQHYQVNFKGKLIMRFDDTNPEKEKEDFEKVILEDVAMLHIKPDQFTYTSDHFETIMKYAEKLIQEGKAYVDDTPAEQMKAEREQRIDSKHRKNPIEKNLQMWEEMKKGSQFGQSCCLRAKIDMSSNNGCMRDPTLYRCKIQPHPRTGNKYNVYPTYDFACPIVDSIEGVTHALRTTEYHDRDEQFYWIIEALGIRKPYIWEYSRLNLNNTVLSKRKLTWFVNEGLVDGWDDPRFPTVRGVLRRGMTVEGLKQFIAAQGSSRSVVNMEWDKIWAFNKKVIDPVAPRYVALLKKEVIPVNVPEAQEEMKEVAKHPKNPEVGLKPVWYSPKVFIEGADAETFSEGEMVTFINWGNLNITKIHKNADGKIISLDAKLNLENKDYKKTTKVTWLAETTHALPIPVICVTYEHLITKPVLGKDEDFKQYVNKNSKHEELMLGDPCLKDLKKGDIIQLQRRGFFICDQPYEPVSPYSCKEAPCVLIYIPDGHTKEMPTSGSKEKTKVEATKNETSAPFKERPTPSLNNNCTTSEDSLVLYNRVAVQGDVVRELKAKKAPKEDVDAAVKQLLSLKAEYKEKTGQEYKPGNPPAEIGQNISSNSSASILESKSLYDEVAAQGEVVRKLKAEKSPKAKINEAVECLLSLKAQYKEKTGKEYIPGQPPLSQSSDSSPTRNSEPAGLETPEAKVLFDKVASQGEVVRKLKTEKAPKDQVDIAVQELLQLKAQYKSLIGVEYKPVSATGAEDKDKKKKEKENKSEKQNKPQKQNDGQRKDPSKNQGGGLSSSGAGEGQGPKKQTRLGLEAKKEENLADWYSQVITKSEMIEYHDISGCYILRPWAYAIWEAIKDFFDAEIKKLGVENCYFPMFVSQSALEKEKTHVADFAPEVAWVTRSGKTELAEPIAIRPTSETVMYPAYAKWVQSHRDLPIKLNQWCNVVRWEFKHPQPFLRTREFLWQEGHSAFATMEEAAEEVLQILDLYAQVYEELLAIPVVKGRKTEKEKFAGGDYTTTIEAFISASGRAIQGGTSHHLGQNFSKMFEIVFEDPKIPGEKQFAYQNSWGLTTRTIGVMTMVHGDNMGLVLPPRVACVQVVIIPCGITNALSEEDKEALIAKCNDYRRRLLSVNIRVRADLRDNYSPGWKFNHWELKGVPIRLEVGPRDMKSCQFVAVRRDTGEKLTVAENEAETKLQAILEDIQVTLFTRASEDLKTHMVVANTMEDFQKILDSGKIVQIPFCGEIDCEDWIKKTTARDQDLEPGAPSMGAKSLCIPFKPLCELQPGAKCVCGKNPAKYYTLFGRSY
As to the kind of experiment: pull-down; in vitro assembly of the MSC as in a2 but lacking IRS; anti-Flag beads on MRS-Flag. To be noted: both partners purified.

B1: MRS-AIMP3 complex (human cytosolic methionyl-tRNA synthetase co-expressed with AIMP3) (complex)
chain 1: MRLFVSDGVPGCLPVLAAAGRARGRAEVLISTVGPEDCVVPFLTRPKVPVLQLDSGNYLFSTSAICRYFFLLSGWEQDDLTNQWLEWEATELQPALSAALYYLVVQGKKGEDVLGSVRRALTHIDHSLSRQNCPFLAGETESLADIVLWGALYPLLQDPAYLPEELSALHSWFQTLSTQEPCQRAAETVLKQQGVLALRPYLQKQPQPSPAEGRAVTNEPEEEELATLSEEEIAMAVTAWEKGLESLPPLRPQQNPVLPVAGERNVLITSALPYVNNVPHLGNIIGCVLSADVFARYSRLRQWNTLYLCGTDEYGTATETKALEEGLTPQEICDKYHIIHADIYRWFNISFDIFGRTTTPQQTKITQDIFQQLLKRGFVLQDTVEQLRCEHCARFLADRFVEGVCPFCGYEEARGDQCDKCGKLINAVELKKPQCKVCRSCPVVQSSQHLFLDLPKLEKRLEEWLGRTLPGSDWTPNAQFITRSWLRDGLKPRCITRDLKWGTPVPLEGFEDKVFYVWFDATIGYLSITANYTDQWERWWKNPEQVDLYQFMAKDNVPFHSLVFPCSALGAEDNYTLVSHLIATEYLNYEDGKFSKSRGVGVFGDMAQDTGIPADIWRFYLLYIRPEGQDSAFSWTDLLLKNNSELLNNLGNFINRAGMFVSKFFGGYVPEMVLTPDDQRLLAHVTLELQHYHQLLEKVRIRDALRSILTISRHGNQYIQVNEPWKRIKGSEADRQRAGTVTGLAVNIAALLSVMLQPYMPTVSATIQAQLQLPPPACSILLTNFLCTLPAGHQIGTVSPLFQKLENDQIESLRQRFGGGQAKTSPKPAVVETVTTAKPQQIQALMDEVTKQGNIVRELKAQKADKNEVAAEVAKLLDLKKQLAVAEGKPPEAPKGKKKK
chain 2: MAAAAELSLLEKSLGLSKGNKYSAQGERQIPVLQTNNGPSLTGLTTIAAHLVKQANKEYLLGSTAEEKAIVQQWLEYRVTQVDGHSSKNDIHTLLKDLNSYLEDKVYLTGYNFTLADILLYYGLHRFIVDLTVQEKEKYLNVSRWFCHIQHYPGIRQHLSSVVFIKNRLYTNSH
notes: human cytosolic methionyl-tRNA synthetase (MRS), gene cloned from the cDNA of HEK293 cells; Only MRS carries the Flag tag; It is the bait of the anti-Flag pull-down of the assembled MSC; source: co-expressed from a modified pETDuet-1, purified (Ni-NTA, gel filtration); not shown: Flag, C-terminal, kept
Consider B1, for which the binding result in test [1] and in test [2] was “binds” throughout.
